Source: the Human Domainome abundance scans (Beltran et al. 2025)
± gives the uncertainty stated by the source.

B1: Homeobox protein cut-like 2, residues 895 to 963; numbered along this chain, O14529 (parent)
chain: EVDTLELTRQVKEKLAKNGICQRIFGEKVLGLSQGSVSDMLSRPKPWSKLTQKGREPFIRMQLWLSDQL
B2: POU domain, class 6, transcription factor 2, residues 609 to 663; numbered along this chain, P78424 (parent)
chain: KRRTSFTPQALEILNAHFEKNTHPSGQEMTEIAEKLNYDREVVRVWFCNKRQALK

Variants of: B1
Test: abundance fitness (aPCA) (normalised: wild type 0, dead -1); higher = more abundant; growth selection in yeast, the domain comes from the species named
Details: Homo sapiens

Variant	abundance fitness
EVDTLELTRQVKEKLAKNGICQRIFGEKALGLSQGSVSDMLSRPKPWSKLTQKGREPFIRMQLWLSDQL [V29A]	-0.36 ± 0.043
EVDTLELTRPVKEKLAKNGICQRIFGEKVLGLSQGSVSDMLSRPKPWSKLTQKGREPFIRMQLWLSDQL [Q10P]	-0.158 ± 0.039
EVDTLELTRDVKEKLAKNGICQRIFGEKVLGLSQGSVSDMLSRPKPWSKLTQKGREPFIRMQLWLSDQL [Q10D]	0.005 ± 0.11
EVDTLELTRRVKEKLAKNGICQRIFGEKVLGLSQGSVSDMLSRPKPWSKLTQKGREPFIRMQLWLSDQL [Q10R]	-0.038 ± 0.055
EVDTLELTRQVKEKLAKLGICQRIFGEKVLGLSQGSVSDMLSRPKPWSKLTQKGREPFIRMQLWLSDQL [N18L]	0.115 ± 0.027
EVDTLELTRQVKEKLAKAGICQRIFGEKVLGLSQGSVSDMLSRPKPWSKLTQKGREPFIRMQLWLSDQL [N18A]	-0.119 ± 0.044
EVDTLELTRQVKEKLAKFGICQRIFGEKVLGLSQGSVSDMLSRPKPWSKLTQKGREPFIRMQLWLSDQL [N18F]	-0.065 ± 0.045
EVDTLELTRQVKEKLAKCGICQRIFGEKVLGLSQGSVSDMLSRPKPWSKLTQKGREPFIRMQLWLSDQL [N18C]	-0.354 ± 0.091
EVDTLELTRQVKEKLAKNGICARIFGEKVLGLSQGSVSDMLSRPKPWSKLTQKGREPFIRMQLWLSDQL [Q22A]	-0.098 ± 0.05
EVDTLELTRQVKEKLAKNGICVRIFGEKVLGLSQGSVSDMLSRPKPWSKLTQKGREPFIRMQLWLSDQL [Q22V]	-0.116 ± 0.041
EVDTLELTRQVKEKLAKNGICIRIFGEKVLGLSQGSVSDMLSRPKPWSKLTQKGREPFIRMQLWLSDQL [Q22I]	-0.223 ± 0.1
EVDTLELTRQVKEKLAKNGICQRIFGEKVLGLSQGSVSDMLSRPKPWSKLPQKGREPFIRMQLWLSDQL [T51P]	-0.355 ± 0.035
EVDTLELTRQVKEKLAKNGICQRIFGEKVLGLSQGSVSDMLSRPKPWSKLRQKGREPFIRMQLWLSDQL [T51R]	-0.109 ± 0.063
EVDTLELTRQVKEKLAKNGICQRIFGEKVLGLSQGSVSDMLSRPKPWSKLTQKGREPFIRMQLWLSIQL [D67I]	-0.603 ± 0.074
EVDTLELTRQVKEKLAKNGICQRHFGEKVLGLSQGSVSDMLSRPKPWSKLTQKGREPFIRMQLWLSDQL [I24H]	0.007 ± 0.085
EVDTLELTRQVKEKLAKNGICQRIFGEKVLGLSQGSVSDMLSRPKPWSKLTQKGREPFIPMQLWLSDQL [R60P]	-0.912 ± 0.033
EVDTLELTRQVKEKLAKNGICQRIMGEKVLGLSQGSVSDMLSRPKPWSKLTQKGREPFIRMQLWLSDQL [F25M]	-0.462 ± 0.046
EVDTLELTRQVKEKLAKNGICQRIFGEKVLGLSQGSVSDMLSRPMPWSKLTQKGREPFIRMQLWLSDQL [K45M]	-0.053 ± 0.026

Variant	abundance fitness
EVDTLELTRQVKEKLAKNGICQRIFGEKVLGLSQGSVSDMLSRPCPWSKLTQKGREPFIRMQLWLSDQL [K45C]	-0.229 ± 0.24
EVVTLELTRQVKEKLAKNGICQRIFGEKVLGLSQGSVSDMLSRPKPWSKLTQKGREPFIRMQLWLSDQL [D3V]	-0.42 ± 0.029
EVDTLELTRQVKEKLAKNGICQRIFGEKVLGLSQGSTSDMLSRPKPWSKLTQKGREPFIRMQLWLSDQL [V37T]	0 ± 0.043
EVDTLELKRQVKEKLAKNGICQRIFGEKVLGLSQGSVSDMLSRPKPWSKLTQKGREPFIRMQLWLSDQL [T8K]	-0.063 ± 0.041
EVDTLELSRQVKEKLAKNGICQRIFGEKVLGLSQGSVSDMLSRPKPWSKLTQKGREPFIRMQLWLSDQL [T8S]	-0.115 ± 0.031
EVDTLELERQVKEKLAKNGICQRIFGEKVLGLSQGSVSDMLSRPKPWSKLTQKGREPFIRMQLWLSDQL [T8E]	-0.242 ± 0.045
EVDTLELTRQVKEKLAKNGICQRIFGEKVLGLSQGSVSCMLSRPKPWSKLTQKGREPFIRMQLWLSDQL [D39C]	-0.15 ± 0.26
EVDTLELTRQVKEKLAKNGICQRIFGEKVLGLSQGSVSNMLSRPKPWSKLTQKGREPFIRMQLWLSDQL [D39N]	-0.188 ± 0.15
EVDTLELTRQVKEKLAKNGICQRIFGEKVLGLSQGSVSKMLSRPKPWSKLTQKGREPFIRMQLWLSDQL [D39K]	-0.441 ± 0.17
EVDTLELTRQVKEKLAKNGICQRIFGEKVLGLSQGSVSDMLTRPKPWSKLTQKGREPFIRMQLWLSDQL [S42T]	-0.169 ± 0.089
EVDTLELTRQVKEKLAKNGICQRIFGEKVLGLSQGSVSDMLNRPKPWSKLTQKGREPFIRMQLWLSDQL [S42N]	-0.095 ± 0.057
EVDTLELTRQVKEKLAKNGIYQRIFGEKVLGLSQGSVSDMLSRPKPWSKLTQKGREPFIRMQLWLSDQL [C21Y]	-0.41 ± 0.097
EVDTLELTRQVKEKLAKNGIAQRIFGEKVLGLSQGSVSDMLSRPKPWSKLTQKGREPFIRMQLWLSDQL [C21A]	-0.04 ± 0.038
EVDTLELTRQVKEKLAKNGICQRIFGEKVLGLSQGSVSDMLSRPKPWSKLTQKGREPFIRMCLWLSDQL [Q62C]	-0.263 ± 0.075
EVDCLELTRQVKEKLAKNGICQRIFGEKVLGLSQGSVSDMLSRPKPWSKLTQKGREPFIRMQLWLSDQL [T4C]	-0.3 ± 0.073
EVDTLELTRQVKEKLAKNGICQRIFGEKVLGLSCGSVSDMLSRPKPWSKLTQKGREPFIRMQLWLSDQL [Q34C]	-0.262 ± 0.18
EVDTLELTRQVKEKLAKNGICQRIFGEKVLGLSRGSVSDMLSRPKPWSKLTQKGREPFIRMQLWLSDQL [Q34R]	0.282 ± 0.13
EVDTLELTRQVKEKLAKNGICQRIFAEKVLGLSQGSVSDMLSRPKPWSKLTQKGREPFIRMQLWLSDQL [G26A]	0.082 ± 0.065

Variants of: B2
Test: as above
Details: Homo sapiens

Variant	abundance fitness
ARRTSFTPQALEILNAHFEKNTHPSGQEMTEIAEKLNYDREVVRVWFCNKRQALK [K1A]	-0.19 ± 0.24
GRRTSFTPQALEILNAHFEKNTHPSGQEMTEIAEKLNYDREVVRVWFCNKRQALK [K1G]	0.157 ± 0.18
DRRTSFTPQALEILNAHFEKNTHPSGQEMTEIAEKLNYDREVVRVWFCNKRQALK [K1D]	-0.161 ± 0.15
ERRTSFTPQALEILNAHFEKNTHPSGQEMTEIAEKLNYDREVVRVWFCNKRQALK [K1E]	-0.632 ± 0.22
